Here are results for one molecule from US20210332086A1 (published 2021).

For this test, the target named is MERS-CoV S-protein (on 293FT effector cells) (MERS-CoV, UniProt K9N5Q8). In words: cell-based or functional assay.

As to SLTQINTTLLDLTYEMLSLQQVVKALNESYIDLKEL [Peptide 1 (WT)], the “EC50 (µM), cell-cell fusion assay” value is 1.05 µM.
